± gives the half width of the 95% confidence interval.
Columns and labels:
[1] = folding stability dG unfold from chymotrypsin proteolysis; higher = more stable
How it was run: (§1)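 Bayesian fitting of sequencing counts gave K50 for each design. Unfolding free energy followed by setting this against a sequence-predicted unfolded-state K50 and a shared folded-state K50, either per protease or with trypsin and chymotrypsin combined. The designs, under 80 residues and lacking cysteine, were digested in a PA-tagged cDNA display format at 11 threefold-diluted protease concentrations and without protease, and only those with AlphaFold2 dimer inter-PAE above 15 were kept.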

[2] = folding stability dG unfold from trypsin proteolysis; higher = more stable
How it was run: as §1

[3] = folding stability dG unfold (combined trypsin and chymotrypsin); higher = more stable
How it was run: as §1

Q: Which “folding stability dG unfold” value [1] does the source give for “SAGGMLIIRIEIEIEKNGKKEKKEILIVAKTEEEAKKAAEKIAKEKGLKIKKIEILPFKSLEELKKALSAGG [r13_949_TrROS_Hall]” here?
A: The value was 14.5 ± 0.155 kJ/mol.

Q: What about the “folding stability dG unfold” value [2] of the same sequence?
A: The value was 8.87 ± 0.255 kJ/mol.

Q: And the “folding stability dG unfold” value [3]?
A: Its value is 13 ± 0.372 kJ/mol.

Q: With “SAGGMLLLTLTVDRVEEAEFPEKVPYLRTTTQPVVVPGTTLEEAEAVAAALAAAHGVPVTLTVTPETGSAGG [r13_320_JUSTAS]” as the sequence, how does the “folding stability dG unfold” value [1] read?
A: The value was -0.731 ± 0.46 kJ/mol.

Q: What about the “folding stability dG unfold” value [2] of the same sequence?
A: Its value is -1.31 ± 0.669 kJ/mol.

Q: And the “folding stability dG unfold” value [3]?
A: Its value is -0.789 ± 0.301 kJ/mol.

Q: With “SAGGMLTLEEIKKAKPGEKLEIEVDGKIYLVEIKKNENGELTLTVKKVDKETGEIVEEKTISLEELLSAGGS [r16_763_TrROS_Hall]” as the sequence, how does the “folding stability dG unfold” value [1] read?
A: The value was 15.8 ± 0.322 kJ/mol.

Q: What about the “folding stability dG unfold” value [2] of the same sequence?
A: Its value is 12.2 ± 0.46 kJ/mol.

Q: And the “folding stability dG unfold” value [3]?
A: The value was 14.8 ± 0.293 kJ/mol.

Q: With “SAGGMLVVLLDDRPEVLPVNPERFETPEEAVEAVAREVAERFPDAGERRVVVVNEDGEEVATVELTPESAGG [r13_257_TrMRF]” as the sequence, how does the “folding stability dG unfold” value [1] read?
A: Its value is 3.66 ± 0.167 kJ/mol.

Q: And the “folding stability dG unfold” value [2]?
A: Its value is -4.51 ± 0.502 kJ/mol.

Q: And the “folding stability dG unfold” value [3]?
A: Its value is 1.92 ± 0.218 kJ/mol.

Q: With “SAGGMMEVEEREVEIELELEPGQSIEEALRELLGLEEGDEIVDVEVEVDPETRKVKIRVVILRPPEEESAGG [r13_828_TrROS_Hall]” as the sequence, how does the “folding stability dG unfold” value [1] read?
A: The value was 11.7 ± 0.837 kJ/mol.

Q: And the “folding stability dG unfold” value [2]?
A: The value was 17.7 ± 1.63 kJ/mol.

Q: What about the “folding stability dG unfold” value [3] of the same sequence?
A: Its value is 15.4 ± 2.18 kJ/mol.

Q: Which “folding stability dG unfold” value [1] does the source give for “SAGGMMIVIRIPNKPVEFEINGWKIEYNPDEGTIIIPFPPEMLDQLEKLPGLEGIKDIEIIPPGELKSAGGS [r8_493_TrROS]” here?
A: The value was 10.7 ± 0.213 kJ/mol.

Q: And the “folding stability dG unfold” value [2]?
A: Its value is 5.12 ± 0.121 kJ/mol.

Q: And the “folding stability dG unfold” value [3]?
A: Its value is 8.88 ± 0.586 kJ/mol.

Q: Which “folding stability dG unfold” value [1] does the source give for “SAGGMMKIKITIINENGETLTIEIEVPEEDLEEAIKALEDELKKKGYEIESIERVNGKITITVRIKPSAGGS [r16_662_TrROS_Hall]” here?
A: Its value is 17 ± 0.251 kJ/mol.

Q: And the “folding stability dG unfold” value [2]?
A: Its value is 16.8 ± 0.669 kJ/mol.

Q: What about the “folding stability dG unfold” value [3] of the same sequence?
A: Its value is 17.2 ± 0.502 kJ/mol.

Q: Which results are given for “SAGGMMKYVVRIKIYNENGEEVKEIEIEIEMSEEEVEELARKLAEKLAEELGVEVKIVEVEIEKLEPSAGGS [r16_140_TrROS_Hall]”?
A: folding stability dG unfold [1]: 17.9 ± 0.837 kJ/mol; folding stability dG unfold [2]: 18.4 ± 1.55 kJ/mol; folding stability dG unfold [3]: 18.4 ± 1.05 kJ/mol

Q: With “SAGGMNIVTYTLTIPPGRIEEVKEAIEALGIPVVKVELVEVLPGEGLAIVKIEVPNNVDPEKVKKALSSAGG [r13_725_JUSTAS]” as the sequence, how does the “folding stability dG unfold” value [1] read?
A: The value was 17.3 ± 0.586 kJ/mol.

Q: What about the “folding stability dG unfold” value [2] of the same sequence?
A: The value was 16.6 ± 0.795 kJ/mol.

Q: What about the “folding stability dG unfold” value [3] of the same sequence?
A: The value was 17.1 ± 0.502 kJ/mol.

Q: What does the source list for “SAGGMPEVKYLEITITVEVPTEEEALEKLKEELKKLFPNAEIVSVEVEVEEEDGKLTVTVKITVKLPSAGGS [r8_120_TrROS_Hall]”?
A: folding stability dG unfold [1]: 10.4 ± 0.46 kJ/mol; folding stability dG unfold [2]: 15.3 ± 0.92 kJ/mol; folding stability dG unfold [3]: 14 ± 0.669 kJ/mol

Q: For “SAGGMPIKELTAEEIAALLKEKLGVDVEIEEVKVTVERDENGNYVLRIEVKFKETNETITLEIVLPKSAGGS [r16_42_TrROS_Hall]”, which “folding stability dG unfold” value [1] is on record?
A: Its value is 17.6 ± 0.669 kJ/mol.

Q: What about the “folding stability dG unfold” value [2] of the same sequence?
A: The value was 12.3 ± 0.389 kJ/mol.

Q: What about the “folding stability dG unfold” value [3] of the same sequence?
A: The value was 16.2 ± 0.586 kJ/mol.

Q: What does the source list for “SAGGMPIYARIVLYPPETGKFSELEIEFPEFESPDEVVEAAKEIAEKLGGPIARIEIYDPKTGKPFPDSAGG [r13_771_TrMRF]”?
A: folding stability dG unfold [1]: 1.18 ± 0.347 kJ/mol; folding stability dG unfold [2]: 2.48 ± 0.393 kJ/mol; folding stability dG unfold [3]: 1.31 ± 1.13 kJ/mol

Q: With “SAGGMPKLTVTITFEPPDGSTTTTRDFTSVEEAIEALRAVPDIPVEPLEDDVIRARRPDSETTVTIVESAGG [r13_143_JUSTAS]” as the sequence, how does the “folding stability dG unfold” value [1] read?
A: Its value is -3.33 ± 1 kJ/mol.

Q: What about the “folding stability dG unfold” value [2] of the same sequence?
A: Its value is 0.805 ± 0.293 kJ/mol.

Q: What about the “folding stability dG unfold” value [3] of the same sequence?
A: The value was -0.716 ± 0.46 kJ/mol.

Q: With “SAGGMPKYFAEVDTEPHGDKVKITLRIRDPNGVERELTFELPLSEVIKLLKELPEEFEVFELKFSDESAGGS [r16_298_TrMRF]” as the sequence, how does the “folding stability dG unfold” value [1] read?
A: The value was 13.1 ± 0.142 kJ/mol.

Q: What about the “folding stability dG unfold” value [2] of the same sequence?
A: The value was 8.56 ± 0.176 kJ/mol.

Q: And the “folding stability dG unfold” value [3]?
A: The value was 11.3 ± 0.586 kJ/mol.

Q: Which “folding stability dG unfold” value [1] does the source give for “SAGGMPLEDMSLEELKARLEEALEELRAKLPPGEKKTLTLTVTLTVVDKETGETRTVTLTVTLTLPAPSAGG [r13_385_TrROS_Hall]” here?
A: Its value is 18.3 ± 0.218 kJ/mol.

Q: And the “folding stability dG unfold” value [2]?
A: Its value is 14.3 ± 0.268 kJ/mol.

Q: And the “folding stability dG unfold” value [3]?
A: The value was 17.4 ± 0.318 kJ/mol.

Q: Which “folding stability dG unfold” value [1] does the source give for “SAGGMPPEELEAASLEERIARVRAAGLETATVRRPDGSTLTIDLGEEGPVTITTTTPPGETTTATLPSAGGS [r8_51_JUSTAS]” here?
A: The value was 4.08 ± 0.176 kJ/mol.

Q: What about the “folding stability dG unfold” value [2] of the same sequence?
A: The value was -4.35 ± 2.3 kJ/mol.

Q: What about the “folding stability dG unfold” value [3] of the same sequence?
A: The value was 2.74 ± 0.335 kJ/mol.

Q: Which results are given for “SAGGMPPGDPVKVNVQIRIRMRDPNGKKPELTVPIEYNVQSKEDARDAILKIAKELADEYGYEIEVFSAGGS [r8_149_TrROS]”?
A: folding stability dG unfold [1]: 6.35 ± 0.502 kJ/mol; folding stability dG unfold [2]: 2.97 ± 0.172 kJ/mol; folding stability dG unfold [3]: 5.49 ± 1 kJ/mol

Q: Which “folding stability dG unfold” value [1] does the source give for “SAGGMPPGSFRVRARRPVPLFVRVRLPNDPDVTVTFPVTVPAELELPVNSPEALEALREAGFEIEPASAGGS [r8_482_TrMRF]” here?
A: The value was 0.477 ± 1.38 kJ/mol.

Q: And the “folding stability dG unfold” value [2]?
A: Its value is 2.54 ± 0.586 kJ/mol.

Q: And the “folding stability dG unfold” value [3]?
A: Its value is 1.49 ± 0.753 kJ/mol.

Q: For “SAGGMPVPVLIVVPEDKIEEIIKKIREETDEDVEIKAFKLPDGRVLLLITFNDPQLAEDFLKKFGFGSAGGS [r16_172_TrMRF]”, which “folding stability dG unfold” value [1] is on record?
A: The value was 21.6 ± 0.586 kJ/mol.

Q: What about the “folding stability dG unfold” value [2] of the same sequence?
A: Its value is 17.9 ± 0.962 kJ/mol.

Q: And the “folding stability dG unfold” value [3]?
A: Its value is 21.5 ± 0.711 kJ/mol.

Q: With “SAGGMPVRVLITYESGEIPVTIPVDPNKVVEAEVELEDKTVKITVDPKAKTIKVDAPPSFKFEVLDPSAGGS [r16_761_JUSTAS]” as the sequence, how does the “folding stability dG unfold” value [1] read?
A: Its value is 1.08 ± 0.351 kJ/mol.

Q: What about the “folding stability dG unfold” value [2] of the same sequence?
A: The value was 1.47 ± 0.544 kJ/mol.

Q: What about the “folding stability dG unfold” value [3] of the same sequence?
A: The value was 1.16 ± 0.753 kJ/mol.

Q: With “SAGGMPVTVTIVVPPGTERELAEELAEKYAKEGADVEFEERPGGLVLTMTLPGGEVVTMEIRDPAQASAGGS [r16_406_JUSTAS]” as the sequence, how does the “folding stability dG unfold” value [1] read?
A: Its value is 9.965 ± 0.0962 kJ/mol.

Q: What about the “folding stability dG unfold” value [2] of the same sequence?
A: Its value is 9.61 ± 0.234 kJ/mol.

Q: What about the “folding stability dG unfold” value [3] of the same sequence?
A: The value was 9.81 ± 0.238 kJ/mol.

Q: With “SAGGMPYRLDAVRVEVRPRPDGGPLLVVELTYPDGSRETAVFDSPEDLLRALENSPRFSEITLLPSVSAGGS [r16_757_TrMRF]” as the sequence, how does the “folding stability dG unfold” value [1] read?
A: The value was 0.668 ± 0.368 kJ/mol.

Q: What about the “folding stability dG unfold” value [2] of the same sequence?
A: The value was 4.23 ± 0.0711 kJ/mol.

Q: And the “folding stability dG unfold” value [3]?
A: Its value is 3.09 ± 0.192 kJ/mol.

Q: Which “folding stability dG unfold” value [1] does the source give for “SAGGMQALLRLPDTDEVVVLPDELLEAIASGDPERLAALPPEVREVISNVAELVVVPPPDGDPRPEGGSAGG [r13_233_TrMRF]” here?
A: The value was 2.08 ± 0.628 kJ/mol.

Q: And the “folding stability dG unfold” value [2]?
A: The value was 1.75 ± 0.134 kJ/mol.

Q: What about the “folding stability dG unfold” value [3] of the same sequence?
A: Its value is 2.57 ± 0.628 kJ/mol.

Q: What does the source list for “SAGGMRIELVRTYIEEPDENGKLKGSGYREVLVLRPPPPVIRVPPELLEEAEELRKKLDGPVEPEELGSAGG [r19_315_JUSTAS]”?
A: folding stability dG unfold [1]: 15.1 ± 0.753 kJ/mol; folding stability dG unfold [2]: 15.2 ± 1.59 kJ/mol; folding stability dG unfold [3]: 16.1 ± 1.76 kJ/mol

Q: Which “folding stability dG unfold” value [1] does the source give for “SAGGMRLRIVVKSEEEARELAEALAKKLKEEFPGLKIEVKVVKVEYNEETDLIVVEVEIKVELEDEEPSAGG [r13_585_TrROS_Hall]” here?
A: The value was 18.5 ± 0.795 kJ/mol.

Q: And the “folding stability dG unfold” value [2]?
A: The value was 19.2 ± 1.38 kJ/mol.

Q: What about the “folding stability dG unfold” value [3] of the same sequence?
A: The value was 18.5 ± 1.46 kJ/mol.

Q: For “SAGGMSFTMTVPPSNPNQVVGTNVPVSDVPPNYAYTLHFPNTGTTTTIPVSQAEEVKAQPHIDEITATSAGG [r19_302_JUSTAS]”, which “folding stability dG unfold” value [1] is on record?
A: Its value is 0.126 ± 0.356 kJ/mol.

Q: What about the “folding stability dG unfold” value [2] of the same sequence?
A: The value was 2.88 ± 0.126 kJ/mol.

Q: And the “folding stability dG unfold” value [3]?
A: The value was 2.03 ± 0.167 kJ/mol.

Source: the supplement of paper PMC12764529
